Measurements: patent US20250170263A1 (AbbVie / Abbott, published 2025)

How the values were obtained:
[1] = biological target: T1, wt EGFR overexpressed on the surface of A431 (A-431, human epidermoid carcinoma) cells (human, UniProt P00533 25-1210); experiment: cell-based or functional assay
[2] = biological target: T1, wt EGFR overexpressed on the surface of …; experiment: cell-based or functional assay; remark: listed apart in the source
[3] = biological target: T1, wt EGFR overexpressed on the surface of …; experiment: FACS on A-431 cells, 1 h at 4 C, AlexaFluor 488 secondary antibody, geometric mean fluorescence
Experimental: To assay binding of AM2-AAA to cell surface overexpressed wt EGFR and to mutant forms of EGFR including the activating mutations found in NSCLC (mutEGFR), tumor cells overexpressing wt EGFR (A431) and mutEGFR (NCI-H1650) were assessed by fluorescence activated cell sorting (FACS).
Cells were harvested from flasks when at approximately 1.5×10⁶ cells/mL. Cells were washed once in PBS/1% FBS (FACS buffer) then resuspended at 2.5×10⁶ cells/mL in FACS buffer. 50 μL of cells were added to a round bottom 96-well plate. 50 μL of a 2× concentration of mAb/ADC (final concentrations are indicated in the figures) was added to wells and the plate was incubated at 4° C. for one hour. The cells were washed twice in FACS buffer and resuspended in 50 μL of a 1:100 dilution of secondary Ab (AlexaFluor 488, Invitrogen, 11013) diluted in FACS buffer. The plate was incubated at 4° C. for one hour and washed twice with FACS buffer. Cells were resuspended in 100 μL of PBS/1% formaldehyde and analyzed on a Becton Dickinson FACSCanto II flow cytometer. Data was analyzed using WinList flow cytometry analysis software.

[4] = biological target: T2, wild-type EGFR extra-cellular domain (ECD), EGFR (1-645)-LESRGPF-Myc-NMHTG-6His (human, UniProt P00533 25-645); experiment: SPR, Biacore T200, ADC captured by anti-Fc, EGFR ECD as analyte
T2 construct: Recombinant soluble ECD secreted from HEK293 cells; also called hEGFR WT; EGFR(h)(1-645); not shown: Myc tag
Experimental: (§1) Binding kinetics for AM2 and AM2-AAA for recombinant soluble EGFR extracellular domains (ECDs) were determined by surface plasmon resonance-based measurements made on a Biacore T200 instrument (GE Healthcare) at 25° C. using an anti-Fc capture assay approach. Recombinant soluble ECDs for the three isoforms of EGFR were expressed from transiently transfected HEK293 cells as secreted proteins with a C-terminal myc and histidine tag, and purified by Ni-IMAC (immobilized metal affinity chromatography) and SEC. […]
(§2) Chip preparation and binding kinetic measurements were made in the assay buffer HBS-EP+ (10 mM Hepes, pH 7.4, 150 mM NaCl, 3 mM EDTA, 0.05% Tween 20). […] For binding kinetics measurements each assay cycle consisted of the following steps: (1) capture of test antibody on test surface only; (2) analyte injection (EGFR ECD or buffer only) over both reference and test surface (240 μL at 80 μl/min), after which the dissociation was monitored for 900 seconds at 80 μl/min; (3) regeneration of the capture surface by 10 mM Glycine-HCl, pH 1.5 injections over both reference and test surface. […]

[5] = biological target: mutEGFR on NCI-H1650 (non-small cell lung cancer) cells (human); experiment: cell-based or functional assay
[6] = biological target: T3, truncated wild-type EGFR 1-525, [EGFR1(h)(1-525)]-LESRGPF-Myc-NMHTG-6His (human, UniProt P00533 25-525); experiment: SPR, Biacore T200, 25 C, anti-Fc capture of ADC, EGFR ECD as analyte, 1:1 model
T3 construct: Recombinant soluble truncated ECD secreted from HEK293 cells; also called EGFRs1-501; ECD EGFR 1-525; not shown: Myc tag
Experimental: (§3) Binding kinetics for AM2 and AM2-AAA for recombinant soluble EGFR extracellular domains (ECDs) were determined by surface plasmon resonance-based measurements made on a Biacore T200 instrument (GE Healthcare) at 25° C. using an anti-Fc capture assay approach. Recombinant soluble ECDs for the three isoforms of EGFR were expressed from transiently transfected HEK293 cells as secreted proteins with a C-terminal myc and histidine tag, and purified by Ni-IMAC (immobilized metal affinity chromatography) and SEC. In particular, the EGFR ECD tested included amino acids 1-645 of EGFR fused to a myc and histidine tag [(EGFR (1-645)-LESRGPF-Myc-NMHTG-6His (“LESRGPF” (SEQ ID NO: 27))]. The EGFRvIII variant was also fused to a myc and histidine tag (EGFR(h)(1-29)-G-(298-645)-LESRGPF-Myc-NMHTG-6His), as was the ECD EGFR 1-525 [EGFR1(h)(1-525)]-LESRGPF-Myc-NMHTG-6His (“LESRGPF” (SEQ ID NO: 28))]. All ECDs were expressed with the signal sequence […] which was cleaved during secretion.
(§4) Chip preparation and binding kinetic measurements were made in the assay buffer HBS-EP+ (10 mM Hepes, pH 7.4, 150 mM NaCl, 3 mM EDTA, 0.05% Tween 20). For anti-Fc capture chip preparation, approximately 2000 RU of goat anti-human IgG Fc polyclonal antibody (Thermo Fisher Scientific Inc., cat. 31125), diluted to 25 μg/mL in 10 mM sodium acetate (pH 4.5) was directly immobilized across a CM5 biosensor chip using a standard amine coupling kit according to manufacturer's instructions and procedures (GE Healthcare). Unreacted moieties on the biosensor surface were blocked with ethanolamine. For binding kinetics measurements each assay cycle consisted of the following steps: (1) capture of test antibody on test surface only; (2) analyte injection (EGFR ECD or buffer only) over both reference and test surface (240 μL at 80 μl/min), after which the dissociation was monitored for 900 seconds at 80 μl/min; (3) regeneration of the capture surface by 10 mM Glycine-HCl, pH 1.5 injections over both reference and test surface.
(§5) For kinetic determinations, analytes were randomized 3-fold dilution series from 3 uM top dose. During the assay, all measurements were referenced against the capture surface alone (i.e., with no captured test antibody) and buffer-only injections were used for secondary referencing.

[7] = biological target: T4, EGFRvIII (hEGFR de2-7) [EGFR(H)(1-29)-G-(298-645)], EGFR(h)(1-29)-G-(298-645)-LESRGPF-Myc-NMHTG-6His (human, UniProt P00533 298-645); experiment: as above
T4 construct: Recombinant soluble ECD secreted from HEK293 cells; not shown: Myc tag
Experimental: as §3, §4, §5

[8] = biological target: T2, wild-type EGFR extra-cellular domain …; experiment: SPR, Biacore T200, antibody captured by anti-Fc, EGFR ECD as analyte
Experimental: as §1, §2

[9] = biological target: T3, truncated wild-type EGFR 1-525, …; experiment: SPR, Biacore T200, 25 C, anti-Fc capture of antibody, EGFR ECD as analyte, 1:1 model
Experimental: as §3, §4, §5

[10] = biological target: T4, EGFRvIII (hEGFR de2-7) …; experiment: as above
Experimental: as §3, §4, §5

| EC50 (read off the curve), caspase 3/7 activity fold change in A431 cells [1] [nM] | IC50 (read off the curve), % Bim bound to BCL-xl in A-431 cells [2] [nM] | EC50 (read off the curve) [3] [nM] | binding result [4] | IC50 (read off the curve), % Bim bound to BCL-xl in NCI-H1650 cells [5] [nM] | Kd [6] [nM] | koff [6] [s⁻¹] | kon [6] [M⁻¹ s⁻¹] | Kd [7] [nM] | koff [7] [s⁻¹] | kon [7] [M⁻¹ s⁻¹] | binding result [8] | Kd [9] [nM] | koff [9] [s⁻¹] | kon [9] [M⁻¹ s⁻¹] | Kd [10] [nM] | koff [10] [s⁻¹] | kon [10] [M⁻¹ s⁻¹] | Binder |
| --- | --- | --- | --- | --- | --- | --- | --- | --- | --- | --- | --- | --- | --- | --- | --- | --- | --- | --- |
| ~7 | ~3 | ~100 | no binding (tested: 3 µM top dose) | ~20 | 400 | 0.0012 | 2900 | 4.9 | 0.00017 | 35000 | – | – | – | – | – | – | – | AM2-AAA ADC (antibody, human IgG1, kappa, L234A L235A, DAR 2, V domains shown, AAA synthon (Bcl-xL inhibitor drug-linker) conjugated through C220 of the heavy chain (i.e., C219 of SEQ ID NO: 1); average DAR 2, Antibody-drug conjugate: the AM2 antibody conjugated to the AAA synthon, average DAR 2; The conjugation site (C220) is stated only in the summary and embodiments) VH: EVQLQESGPGLVKPSQTLSLTCTVSGYSISNDFAWNWIRQPPGKGLEWMGYISYKGNTRYQPSLKSRITISRDTSKNQFFLKLNSVTAADTATYYCVTASRGFPWWGQGTLVTVSS VL: DIQMTQSPSSMSVSVGDRVTITCHSSQDINSNIGWLQQKPGKSFKGLIYHGTNLDDGVPSRFSGSGSGTDYTLTISSLQPEDFATYYCVQYAQFPWTFGGGTKLEIKR |
| – | – | ~80 | – | – | – | – | – | – | – | – | no binding (tested: 3 µM top dose) | 420 | 0.0012 | 2800 | 5 | 0.00017 | 33000 | AM2 antibody (antibody, human IgG1, kappa, L234A L235A, V domains shown, Humanized IgG1, z,a allotype, with the LALA mutation (L234A, L235A) and LC:C214A (C6v1); Expressed in HEK293 cells; also called EGFR AM2 antibody) VH: EVQLQESGPGLVKPSQTLSLTCTVSGYSISNDFAWNWIRQPPGKGLEWMGYISYKGNTRYQPSLKSRITISRDTSKNQFFLKLNSVTAADTATYYCVTASRGFPWWGQGTLVTVSS VL: DIQMTQSPSSMSVSVGDRVTITCHSSQDINSNIGWLQQKPGKSFKGLIYHGTNLDDGVPSRFSGSGSGTDYTLTISSLQPEDFATYYCVQYAQFPWTFGGGTKLEIKR |
